Target: T1, recombinant H2B.9 (Arabidopsis, UniProt O23629 1-150)
T1 construct: histone H2B.9 (HTB9) of Arabidopsis; source: E. coli BL21 (DE3), purified (Ni-NTA under denaturing conditions, thrombin, SP sepharose)
Test: SEC; freeze-dried histones mixed at a 1:1 molar ratio in 7 M guanidine hydrochloride, step-wise dialysed from 2 M to 0.1 M NaCl refolding buffer, Superdex200 in 0.1 M NaCl refolding buffer; peak fractions on SDS-PAGE
Settings: both partners purified

T1 sequence (O23629 whole entry): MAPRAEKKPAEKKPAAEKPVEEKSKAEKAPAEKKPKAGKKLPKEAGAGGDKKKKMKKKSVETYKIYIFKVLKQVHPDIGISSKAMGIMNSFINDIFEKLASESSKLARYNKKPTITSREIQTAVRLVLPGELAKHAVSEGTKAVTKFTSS

binding result	Binder
binds	recombinant H2A.W.6 (natural protein, Arabidopsis, UniProt Q9FJE8 1-150, looked up, histone H2A.W.6 of Arabidopsis; source: E. coli BL21 (DE3), purified (Ni-NTA under denaturing conditions, thrombin, SP sepharose)) MESTGKVKKAFGGRKPPGAPKTKSVSKSMKAGLQFPVGRITRFLKKGRYAQRLGGGAPVYMAAVLEYLAAEVLELAGNAARDNKKSRIIPRHLLLAIRNDEELGKLLSGVTIAHGGVLPNINSVLLPKKSATKPAEEKATKSPVKSPKKA
binds	recombinant H2A.W.7 (natural protein, Arabidopsis, UniProt Q94F49 1-150, looked up, histone H2A.W.7 of Arabidopsis; source: E. coli BL21 (DE3), purified (Ni-NTA under denaturing conditions, thrombin, SP sepharose)) MESSQATTKPTRGAGGRKGGDRKKSVSKSVKAGLQFPVGRIARYLKKGRYALRYGSGAPVYLAAVLEYLAAEVLELAGNAARDNKKNRINPRHLCLAIRNDEELGRLLHGVTIASGGVLPNINPVLLPKKSTASSSQAEKASATKSPKKA
binds	recombinant H2A.13 (natural protein, Arabidopsis, UniProt Q9LHQ5 1-132, looked up, histone H2A.13 of Arabidopsis; source: E. coli BL21 (DE3), purified (Ni-NTA under denaturing conditions, thrombin, SP sepharose)) MAGRGKTLGSGVAKKSTSRSSKAGLQFPVGRIARFLKNGKYATRVGAGAPVYLAAVLEYLAAEVLELAGNAARDNKKTRIVPRHIQLAVRNDEELSKLLGDVTIANGGVMPNIHSLLLPKKAGASKPSADED
